# From paper PMC10907699, “The IRE1β-mediated unfolded protein response is repressed by the chaperone AGR2 in mucin producing cells” (The EMBO Journal, 2023)
# T1: mouse AGR2 (21-175) C81S (mouse, UniProt O88312 21-175, C81S)
# T1 sequence: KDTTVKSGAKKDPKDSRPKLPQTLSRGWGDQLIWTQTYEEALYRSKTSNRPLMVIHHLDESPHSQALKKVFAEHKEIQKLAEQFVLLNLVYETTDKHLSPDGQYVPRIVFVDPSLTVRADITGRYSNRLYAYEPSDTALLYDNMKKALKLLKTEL
# T2: mouse AGR2 (21-175) C81E (mouse, UniProt O88312 21-175, C81E)
# T2 sequence: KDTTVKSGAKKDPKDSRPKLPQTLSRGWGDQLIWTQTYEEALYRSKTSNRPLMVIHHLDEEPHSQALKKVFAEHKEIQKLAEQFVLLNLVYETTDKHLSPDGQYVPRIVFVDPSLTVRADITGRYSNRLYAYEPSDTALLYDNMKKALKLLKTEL
# T3: MBP-hIRE1bLD (35-428)-NanoLuc-H6 (human, UniProt Q76MJ5 35-428)
# T3 construct: IRE1β (ERN2) luminal domain, human, residues 35-428; No step that cleaves MBP is described; also called IRE1β-nluc donor; IRE1β LD-nanoluc; source: T7 Express lysY/Iq E. coli, purified (Ni-NTA, amylose resin, two gel filtrations); not shown: NanoLuc (complete, WT), C-terminal, kept
# T3 sequence (looked up): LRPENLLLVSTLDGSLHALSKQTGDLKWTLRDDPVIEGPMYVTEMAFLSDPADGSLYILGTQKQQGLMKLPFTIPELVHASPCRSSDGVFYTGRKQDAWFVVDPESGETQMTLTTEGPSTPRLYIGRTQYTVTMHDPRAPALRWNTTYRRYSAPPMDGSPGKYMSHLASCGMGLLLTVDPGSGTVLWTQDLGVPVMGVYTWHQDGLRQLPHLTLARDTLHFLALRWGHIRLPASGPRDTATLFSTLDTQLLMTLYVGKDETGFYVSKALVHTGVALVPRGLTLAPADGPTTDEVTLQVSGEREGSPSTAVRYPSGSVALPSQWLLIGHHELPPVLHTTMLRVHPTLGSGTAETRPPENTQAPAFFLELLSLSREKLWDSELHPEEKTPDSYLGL
# B1: MBP-hIRE1b_LD_(35-428)-AviTag-His7 (domain or fragment, human, UniProt Q76MJ5 35-428, looked up)
# chain: LRPENLLLVSTLDGSLHALSKQTGDLKWTLRDDPVIEGPMYVTEMAFLSDPADGSLYILGTQKQQGLMKLPFTIPELVHASPCRSSDGVFYTGRKQDAWFVVDPESGETQMTLTTEGPSTPRLYIGRTQYTVTMHDPRAPALRWNTTYRRYSAPPMDGSPGKYMSHLASCGMGLLLTVDPGSGTVLWTQDLGVPVMGVYTWHQDGLRQLPHLTLARDTLHFLALRWGHIRLPASGPRDTATLFSTLDTQLLMTLYVGKDETGFYVSKALVHTGVALVPRGLTLAPADGPTTDEVTLQVSGEREGSPSTAVRYPSGSVALPSQWLLIGHHELPPVLHTTMLRVHPTLGSGTAETRPPENTQAPAFFLELLSLSREKLWDSELHPEEKTPDSYLGL
# modifications: biotin on the AviTag (endogenous biotinylation of a fraction of the protein in E. coli)
# notes: IRE1β (ERN2) luminal domain, human, residues 35-428; No step that cleaves MBP is described; also called IRE1β LD; IRE1β LD probe; source: T7 Express lysY/Iq E. coli, purified (Ni-NTA, amylose resin, two gel filtrations); not shown: AviTag, C-terminal, kept
# Legend:
# [1] = biological target: AGR2 (Homo sapiens) (UniProt O95994); conditions: cited from earlier work
# [2] = biological target: MBP-hIRE1β LD ∆C-mGL-AviTag-His (human) (UniProt Q76MJ5); experiment: mass photometry (ISCAT); IRE1β LD wt or ∆C alone at the indicated concentrations; HK buffer, room temperature (~21 °C)
# [3] = biological target: T1, mouse AGR2 (21-175) C81S; experiment: BLI; K1/2 max from steady-state one-site fit
# [4] = biological target: T2, mouse AGR2 (21-175) C81E; experiment: BLI; K1/2 max from steady-state one-site fit
# [5] = biological target: T3, MBP-hIRE1bLD (35-428)-NanoLuc-H6; experiment: FRET or BRET; kinetic readings: AGR2 variants or unlabelled IRE1β LD competitor added to the pre-formed IRE1β LD-nanoluc / IRE1β LD-mGL BRET pair; BRET ratio every 20 s, one-phase exponential decay; conditions: both partners purified
# [6] = biological target: the molecule itself; experiment: mass photometry (ISCAT); IRE1β LD wt or ∆C alone at the indicated concentrations; HK buffer, room temperature (~21 °C)
# [7] = biological target: B1; experiment: BLI; biotinylated IRE1 LD loaded on streptavidin sensors, exposed sequentially to increasing concentrations of AGR2; 30 °C; HK buffer (50 mM HEPES-KOH pH 7.4, 150 mM KCl) with 0.05% Triton X-100 and 1 mM TCEP; signal against AGR2 concentration fitted to a one-site specific binding function (the methods call the result a KD of binding); conditions: both partners purified
molecule,measurement,setting,value
AGR2 (from UniProt O95994),Kd,[1],8 µM
MBP-hIRE1β LD ∆C-mGL-AviTag-His (from UniProt Q76MJ5 35-428) (domain or fragment),stoichiometry N,[2],2
B1,Kd,[3],124 µM
same,Kd,[4],78.5 µM
same,binding result,[5],binds
"MBP-hIRE1β LD-mGL-AviTag-His (domain or fragment, human, UniProt Q76MJ5 35-428, looked up, IRE1β (ERN2) luminal domain, human; C-terminal mGL inserted in the MBP-hIRE1bLD of UK2796 (residues 35-428); also called GFP-tagged IRE1β LD; IRE1β LD-mGL acceptor; source: T7 Express lysY/Iq E. coli, purified (Ni-NTA, amylose resin, two gel filtrations); not shown: MBP, N-terminal, kept; mGL (monomeric Green Lantern), C-terminal, kept) LRPENLLLVSTLDGSLHALSKQTGDLKWTLRDDPVIEGPMYVTEMAFLSDPADGSLYILGTQKQQGLMKLPFTIPELVHASPCRSSDGVFYTGRKQDAWFVVDPESGETQMTLTTEGPSTPRLYIGRTQYTVTMHDPRAPALRWNTTYRRYSAPPMDGSPGKYMSHLASCGMGLLLTVDPGSGTVLWTQDLGVPVMGVYTWHQDGLRQLPHLTLARDTLHFLALRWGHIRLPASGPRDTATLFSTLDTQLLMTLYVGKDETGFYVSKALVHTGVALVPRGLTLAPADGPTTDEVTLQVSGEREGSPSTAVRYPSGSVALPSQWLLIGHHELPPVLHTTMLRVHPTLGSGTAETRPPENTQAPAFFLELLSLSREKLWDSELHPEEKTPDSYLGL",stoichiometry N,[6],2
"mouse AGR2 (21-175) C81E (natural protein, UniProt O88312 21-175, looked up, AGR2, mouse, residues 21-175, active site mutant C81E; also called AGR2 C81E; UK2835; source: T7 Express lysY/Iq E. coli, purified (Ni-NTA, SENP2 cleavage, reverse Ni-NTA); not shown: His6, N-terminal, cleaved; SUMO3, N-terminal, cleaved) KDTTVKSGAKKDPKDSRPKLPQTLSRGWGDQLIWTQTYEEALYRSKTSNRPLMVIHHLDEEPHSQALKKVFAEHKEIQKLAEQFVLLNLVYETTDKHLSPDGQYVPRIVFVDPSLTVRADITGRYSNRLYAYEPSDTALLYDNMKKALKLLKTEL",binding result,[7],binds
"mouse AGR2 (21-175) C81S (natural protein, UniProt O88312 21-175, looked up, AGR2, mouse, residues 21-175, active site mutant C81S; also called AGR2 C81S; UK2795; source: T7 Express lysY/Iq E. coli, purified (Ni-NTA, SENP2 cleavage, reverse Ni-NTA); not shown: His6, N-terminal, cleaved; SUMO3, N-terminal, cleaved) KDTTVKSGAKKDPKDSRPKLPQTLSRGWGDQLIWTQTYEEALYRSKTSNRPLMVIHHLDESPHSQALKKVFAEHKEIQKLAEQFVLLNLVYETTDKHLSPDGQYVPRIVFVDPSLTVRADITGRYSNRLYAYEPSDTALLYDNMKKALKLLKTEL",binding result,[7],binds
